± gives the standard deviation of the averaged measurements.
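Also: ATP exposure 15 min at 22 °C before imaging.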

The data set deals with ATP. Briefly: switch fluorescence ratio, 500 uM ATP over buffer (Cy3 cluster intensity, sum of 5 cycles each) (fold (ratio)); higher = stronger signal-on switching upon ATP binding; sequences stand for … in TCGTCGGCAGCGTCAGATGTGTATAAGAGACAGTTTTTTTTTTTTTTTTTTTTTTTTT…TC. The note with it: aptamer strand: ATP DNA aptamer (quencher-CACCTGGGGGAGTATTGCGGAGGAAGG + anchor), 100 nM annealed; ATP concentration: 500 uM. Put shortly: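 Clusters with intensities outside 100-1000 RFU were excluded. The remaining Cy3-labelled switching-strand clusters on a modified Illumina MiSeq flow-cell had been annealed to 100 nM quencher-labelled ATP aptamer and imaged in selection buffer, then after 15 min with 500 uM ATP at 22 °C, for five cycles separated by NaOH stripping and re-annealing. The fluorescence ratio, averaged per switch-domain sequence, is each cluster's summed target-cycle Cy3 intensity over its summed buffer-cycle Cy3 intensity.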
On to AGTTTCAGGC, for which the switch fluorescence ratio was 1.01 ± 0.031. Regarding GCTTACTGTA, the switch fluorescence ratio was 1.15 ± 0.024.

For GGTATCGGAA, the switch fluorescence ratio was 0.984 ± 0.055. For the sequence GGCACTTCGG, the switch fluorescence ratio came out at 0.99 ± 0.014. For the sequence CGTTGGGATC, the switch fluorescence ratio was found to be 0.99281 ± 0.00021.

In the case of AATACCAAGA, the switch fluorescence ratio came out at 0.9889 ± 0.0067. Then CGGGAGTTAG, with 1.02 ± 0.021; and GGGTGACCAC, with 0.986 ± 0.0044; and TAAACGAAGC, with 1.06 ± 0.039. Then CGGGAAAATT, with 1.02 ± 0.025; and GCTTAGTGGT, with 0.981 ± 0.025; and AATAATTGGT, with 1.01 ± 0.012. Take TTCATCATGT: the switch fluorescence ratio stood at 1.02 ± 0.023. Under AGGAGGTTGT stands 0.976 ± 0.017; under TAGGGAGAGG, 0.9871 ± 0.0049. Consider AGCGGGGTTT, for which the switch fluorescence ratio was 0.987 ± 0.011. Take ATGGGGAGGT: the switch fluorescence ratio amounted to 0.968 ± 0.025. With TTTGGAAGT, the switch fluorescence ratio worked out at 0.991 ± 0.028. Turning to CCGGTTTTGC, the switch fluorescence ratio is 1.21 ± 0.14. Consider CGATGGGATC, for which the switch fluorescence ratio was 1.13 ± 0.0074. In the case of ACGCTTTTTT, the switch fluorescence ratio was 1.01 ± 0.024. For the sequence AAGGTCTAAC, the switch fluorescence ratio was 1.012 ± 0.0067. With GATGCAAGAG, the switch fluorescence ratio turned out to be 3.78 ± 0.7. With TCAGTACGCA, the switch fluorescence ratio turned out to be 1.57 ± 0.095. As to AGAAAAACGG, the switch fluorescence ratio amounted to 1.12 ± 0.25.

Consider TCTGGTGTTC, for which the switch fluorescence ratio is 1.045 ± 0.005. As for TTTTATGGAG, the switch fluorescence ratio was 0.998 ± 0.013. Consider GTTGTGGTTG, for which the switch fluorescence ratio was 0.987 ± 0.035. Consider CTAGGGCGCT, for which the switch fluorescence ratio came to 0.983 ± 0.032.

As to TTCAATATAG, the switch fluorescence ratio came out at 1.21 ± 0.29. Under TTCAGTTTTT stands 1 ± 0.026.

TGCAACGTTT: the switch fluorescence ratio turned out to be 0.971 ± 0.024. As for AATTAGAAGC, the switch fluorescence ratio was found to be 0.9962 ± 0.0075. Under TTTGACATTT stands 1.02 ± 0.03; under CAGCAAATGG, 1.47 ± 0.26; under CGGTGTAGTC, 1.012 ± 0.01. Regarding GATGGGAGTT, the switch fluorescence ratio stood at 1.01 ± 0.014. With AAATCATATG, the switch fluorescence ratio is 1.08 ± 0.087. As to ATCTGTCAGT, the switch fluorescence ratio was 0.9807 ± 0.0092. Turning to AGATGGAGGA, the switch fluorescence ratio is 0.99 ± 0.033. As to CTATTGGGAG, the switch fluorescence ratio is 1.03 ± 0.032.

Regarding ATCGCAGACA, the switch fluorescence ratio is 1.04 ± 0.015.

Consider GGGCGCACGG, for which the switch fluorescence ratio turned out to be 0.992 ± 0.039. CCGGAAATGA: the switch fluorescence ratio worked out at 1.02 ± 0.054. As for TCCGGATATA, the switch fluorescence ratio is 1.065 ± 0.004.

As to TATCGCGGTG, the switch fluorescence ratio worked out at 1.005 ± 0.005. Under TGATTAAATA stands 0.994 ± 0.028; under CTGGACTGGT, 0.989 ± 0.012. For the sequence CCCCGAGGAT, the switch fluorescence ratio came out at 1.14 ± 0.022. On to GGTTAACTTG, for which the switch fluorescence ratio is 0.975 ± 0.034. Regarding GAGTGGTTTT, the switch fluorescence ratio was found to be 0.991 ± 0.063.

On to CTGTATGCGG, for which the switch fluorescence ratio was 1.02 ± 0.089. TTTTTCCCCA: the switch fluorescence ratio worked out at 1.05 ± 0.042. Regarding TTCATGCTTT, the switch fluorescence ratio is 0.9882 ± 0.0097. In the case of CATGGGGGTG, the switch fluorescence ratio is 1 ± 0.021. Then GGTTCGGGGA, with 0.98 ± 0.019. Consider CGAGAGGAAA, for which the switch fluorescence ratio turned out to be 0.9804 ± 0.0046. For TCCAGTGGAA, the switch fluorescence ratio is 0.989 ± 0.044. Then TACGTGGGTT, with 0.994 ± 0.051. GCTGGGTAAT: the switch fluorescence ratio amounted to 1.02 ± 0.044. Regarding GTGGTAGGGC, the switch fluorescence ratio came out at 1.021 ± 0.001.

Take AGAAACGTAT: the switch fluorescence ratio was 1.13 ± 0.013.

Regarding TTAATTTGTG, the switch fluorescence ratio was found to be 0.986 ± 0.017. Turning to GACTTTAGCG, the switch fluorescence ratio is 1.03 ± 0.023. As for CGATGGGAAA, the switch fluorescence ratio was 1.01 ± 0.014.

In the case of GGGTCTCATT, the switch fluorescence ratio was 0.981 ± 0.022. Then GCAACCCGGT, with 1.028 ± 0.0037; and GATCATTGAG, with 0.991 ± 0.012; and CCAAAAGTGG, with 1.04 ± 0.044.

Consider CTTTTACATA, for which the switch fluorescence ratio was 1.03 ± 0.018.

With GGGATTGTAA, the switch fluorescence ratio amounted to 0.982 ± 0.021. Regarding TTTGCCAGGA, the switch fluorescence ratio stood at 0.997 ± 0.0063.

With CACTTCGCCA, the switch fluorescence ratio was 2.12 ± 0.17. Under TCCGGGGGGT stands 1.05 ± 0.025; under TTTGGAAGGA, 0.998 ± 0.04. For GGGTATAAGG, the switch fluorescence ratio was determined as 0.989 ± 0.026.

Regarding TAGTGAGAGC, the switch fluorescence ratio was determined as 1 ± 0.058. Consider GTTGTTGTTG, for which the switch fluorescence ratio is 0.996 ± 0.045. Then AAACACGAGC, with 1.067 ± 0.0061.
